Test results reported in patent US10100120B2, “Antibody which specifically binds to human CRTH2” (KYOWA HAKKO KIRIN CO., LTD, priority 2015, dated 2018).

Experiments:
[1] = biological target: T1, mutated human CRTH2 with amino acid substitution (Homo sapiens, UniProt Q9Y5Y4, I180A/M181A); experiment: Epitope analysis using CHO-S cells which express mutated human CRTH2 with amino acid substitution; format: binding; details: mutant I180A and M181A; antibody 10 μg/mL; relative to wild-type = 100%
T1 construct: inserting genes encoding various mutants with amino acid substitution obtained by deleting termination codons; expressed in transfected cells; host or cells: CHO-S cells (Lifetechnologies), transient (phmAG1-MNLinker vector)
T1 sequence (Q9Y5Y4 1-395 I180A/M181A): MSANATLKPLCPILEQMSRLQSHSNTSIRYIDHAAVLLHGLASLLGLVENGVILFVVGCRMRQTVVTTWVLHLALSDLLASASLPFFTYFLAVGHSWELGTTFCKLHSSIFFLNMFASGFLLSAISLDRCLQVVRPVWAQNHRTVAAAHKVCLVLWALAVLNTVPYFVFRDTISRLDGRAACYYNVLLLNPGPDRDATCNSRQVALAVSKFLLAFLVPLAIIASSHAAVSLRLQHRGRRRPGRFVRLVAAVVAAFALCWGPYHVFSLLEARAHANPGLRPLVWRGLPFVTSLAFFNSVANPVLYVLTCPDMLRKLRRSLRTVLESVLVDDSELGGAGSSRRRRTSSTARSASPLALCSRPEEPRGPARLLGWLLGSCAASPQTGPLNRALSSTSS
Experimental: (§1) A mutant with amino acid substitution expression vector obtained by partially substituting amino acid residues in an extracellular region with other amino acid residues among the amino acid sequences of human CRTH2 was prepared. Specifically, mutant with amino acid substitution expression vectors obtained by substitution of S2A; N4A; T6A and L7A; K8A, P9A, and L10A; P12A, L14A, and EISA; Q16E, R19H, and Q21R; H23A, S24A, and N25A; T26A, S27A, and I28A; D171A, T172A, and I173A; S174A, R175A, and L176A; D177A, G178A, and R179A; 1180A and M181A; Y183A, Y184A, and N185A; L187A, L188A, and L189A; N190A; P191A; G192A; P193A; D194A; R195A; D196A, and T198A; N275A, G277A, and L278A; P276A; P279A and L281A; P280A; or V282A, R283A, and R284A in the amino acid sequences represented by SEQ ID NO: 2 were respectively prepared. It should be noted that the above symbols in the amino acid substitution indicate [single letter code of an amino acid residue before substitution] [substitution position counting from the N terminal] [single letter code of the amino acid reside after substitution].
(§2) Azami-Green tag was added to the intercellular C terminal region by inserting genes encoding various mutants with amino acid substitution obtained by deleting termination codons to the restriction enzyme sites of BamHI and HindIII using phmAG1-MNLinker (MBL) as expression vectors.
(§3) The above-described vectors expressing mutants with amino acid substitution were prepared using 1) a method of entirely synthesizing gene sequences encoding mutants with amino acid substitution and inserting the gene sequences into a vector or 2) a method of performing site-specific mutation from a vector into which DNA which encodes the amino acid sequences of wild-type human CRTH2 represented by SEQ ID NO: 1 was inserted.
(§4) CHO-S cells (Lifetechnologies) were used for preparing mutated human CRTH2 with amino acid substitution expressing cell lines. Free style CHO expression medium (Invitrogen) containing 8 mM L-Glutamine (Invitrogen) was used for subculturing cells and the cells were cultured by shaking under the conditions of 37° C. in the presence of 5% CO2.
(§5) 25 μg of the mutated human CRTH2 with amino acid substitution expression vector prepared in (1) described above was dissolved in 400 μL of Opti-Pro SFM (Invitrogen) and 25 μL of a Freestyle MAX Reagent (Invitrogen) was dissolved in 400 μL of Opti-Pro SFM and each of them were allowed to stand at room temperature for 5 minutes. The two liquids were mixed with each other and allowed to stand at room temperature for 15 minutes. The mixed solution was added to the CHO-S culture solution and the cells were cultured for 24 hours, thereby obtaining cell lines which express mutated human CRTH2 with amino acid substitution.
(§6) The CHO-S cells which express mutated human CRTH2 with amino acid substitution established in (2) were washed with SM, seeded in a 96-well plate such that one well has 2×10^5 cells, and centrifuged at 1700 rpm for 2 minutes. After the supernatant was removed, chLym2, LV0HV1, the anti-human CRTH2 antibody hu19A2 v52, hu8B1 v1, ch3C12, or ch31A5 prepared in Example 9, or a commercially available anti-human CRTH2 antibody BM16 (Santa Cruz) prepared to have a concentration of 10 μg/mL using SM was added thereto to cause a reaction at 4° C. for 1 hour.
(§7) After the cells were washed, goat anti-Human IgG Alexa 647 (Molecular Probes) diluted with SM was added to wells to which chLym2, LV0HV1, hu19A2 v52, hu8B1 v1, ch3C12, or ch31A5 was added and goat anti-Rat IgG Alexa 647 (Molecular Probes) diluted with SM was added to wells to which BM16 was added at a final concentration of 10 μg/mL to cause a reaction at 4° C. for 1 hour.
(§8) After the reaction, the cells were washed and suspended with SM, and the fluorescent intensity was analyzed by flow cytometry (BD Biosciences, FACS CantoII). […]

[2] = biological target: T2, mutated human CRTH2 with amino acid substitution (Homo sapiens, UniProt Q9Y5Y4, D171A/I173A/T172A); experiment: as above; format: binding; details: mutant D171A, T172A, and I173A; antibody 10 μg/mL; relative to wild-type = 100%
T2 construct: inserting genes encoding various mutants with amino acid substitution obtained by deleting termination codons; expressed in transfected cells; host or cells: CHO-S cells (Lifetechnologies), transient (phmAG1-MNLinker vector)
T2 sequence (Q9Y5Y4 1-395 D171A/T172A/I173A): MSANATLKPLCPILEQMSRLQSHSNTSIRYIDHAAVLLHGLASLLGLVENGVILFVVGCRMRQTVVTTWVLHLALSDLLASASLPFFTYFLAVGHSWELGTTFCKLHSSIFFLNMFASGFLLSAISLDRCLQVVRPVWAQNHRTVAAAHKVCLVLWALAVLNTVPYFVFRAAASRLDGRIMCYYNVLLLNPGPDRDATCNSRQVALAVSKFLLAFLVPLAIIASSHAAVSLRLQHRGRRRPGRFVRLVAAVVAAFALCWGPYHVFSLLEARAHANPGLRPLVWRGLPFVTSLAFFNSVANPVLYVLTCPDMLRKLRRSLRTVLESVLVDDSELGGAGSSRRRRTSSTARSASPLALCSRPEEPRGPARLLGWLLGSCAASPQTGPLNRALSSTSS
Experimental: as §1, §2, §3, §4, §5, §6, §7, §8

reactivity against cells expressing mutated human CRTH2 [1]: lost | reactivity against cells expressing mutated human CRTH2 [2]: greatly decreased
B1: LV0HV1: humanized Lym2 antibody, VL LV0 (SEQ ID NO: 33), VH HV1 (SEQ ID NO: 51) (antibody, V domains shown)
VH: EVQLVESGGGVVQPGRSLRLSCAASGFTFSNYYMAWVRQAPGKGLEWVATISYDGSSTYYRDSVKGRFTISRDNAKNSLYLQMNSLRAEDTATYYCARHRGYYYSGAGYFDYWGQGTMVTVSS
VL: DIVMTQTPLSLPVTPGESASISCRSSQSLEYSDGYTYLEWYLQKPGQSPQVLIYGVSNRFSGVPDRFSGSGSGTDFTLKISRVEAEDVGVYYCFQATHDPLTFGQGTKLEIK
